Assay: soluble on expression in E. coli; label from the status in PepcDB or PDB records

| Sequence | soluble on expression in E. coli |
| --- | --- |
| MLIIETLPLLRQQIRRLRMEGKRVALVPTMGNLHDGHMKLVDEAKARADVVVVSIFVNPMQFDRPEDLARYPRTLQEDCEKLNKRKVDLVFAPSVKEIYPNGTETHTYVDVPGLSTMLEGASRPGHFRGVSTIVSKLFNLVQPDIACFGEKDFQQLALIRKMVADMGFDIEIVGVPIMRAKDGLALSSRNGYLTAEQRKIAPGLYKVLSSIADKLQAGERDLDEIITIAGQELNEKGFRADDIQIRDADTLLEVSETSKRAVILVAAWLGDARLIDNKMVELA | soluble |
| GSNAFGRFIDKIYLNSVGWRGIRQRKTHLQMLIKQAVAHLHAKGLAVRVVDIAAGHGRYVLDALANEPAISEILLRDYSEVNVAQGQEMIAQRGMSGRVRFEQGDAFNPEELSALTPRPTLAIVSGLYELFPENEQVKNSLAGLANAIDPGGILIYTGQPWHPQLELIAGVLTSHKDGKPWVMRVRSQGEMDSLVHDAGFDKCTQRIDVWGIFTVSMAVRRDN | not soluble |
| MTSWADIQKLASDLQRVQLSQSSKKLSEVNCIEVLQKLIASHRIDVVYTRDGHSYVTKNHLETEIKNECIAAGGRASLTDIAVALNIDFDHIEKTSRLIVSTDDEFTISNAEIFATEYVHRLRNELRTLLDEQGNQTTAALCKHWNLSSELLQSLLIEKLGSSDFQGVVDGDTIYTSSFLNARQLVLRAILIALTKITPISTIQKRVGLTPKRFWIAFENLQSLGEIPGTLIGSRTSPSCSYRPMMYDHLVKSCVLNQYRQNEFLEISTLKTLGVDAKPALEEVLGSSEFKKLVSMRSMFMTKELMDQCINAVQEDLQKSGISDVHLALQSLNLPLDTADEDEIGSKVANVEKDSHFAEGFVFKGAVLTEALRSIDKLLDVRAHEEVDRLEAEKKKQGGAKAAVKVQEETDDWGDGKKGGKGGKKNAKSVKGGSKSSAPSTSSNLSANISINSEELEIWLRESQSVPEEILSVIVEKLNQETTTLLRKKVQDIQAHQLVASVANSKKSLSAIGDKCRQLYDSFNTFETATSTFADPLGSDLRQYLLKTVGNEIALALLSYVMGVDNAHQLKEKQREETIENLPEMLRDPIRSVFASLKSTDDDALDKFHDAVYNCSAPSATSLALKKVDKKGRAEVGAKITAELHEQLCSQTEPATTLLLSVLYILAKAGRPTTASGKFVSQLVAQIKDLCPENVFDLLQACQKGVVTCIKNKGDEVAKEMLVNDISSLKQSIMP | not soluble |
| MKIIITGEPGVGKTTLVKKIVERLGKRAIGFWTEEVRDPETKKRTGFRIITTEGKKKIFSSKFFTSKKLVGSYGVNVQYFEELAIPILERAYREAKKDRRKVIIIDEIGKMELFSKKFRDLVRQIMHDPNVNVVATIPIRDVHPLVKEIRRLPGAVLIELTPENRDVILEDILSLLERLEHHHHHH | not soluble |
| MVKFIESELILLKKEVDEMWTLVYNQLDRAGEAVMTLDKELAQQVMVRERRVNAFELKIDSDIEDIIALYNPVAIDLRFVLAMLKINTNLERLGDFAEGIARFVIRCKEPVLDADLLARLRLGEMQAEVLSMLELAKRALNEENIEMATAVFGKDNLLDDINAEATGILADYIREHPETAHTCVDLVGVFRKLERSGDHITNIAEEIVFFIDAKVLKHSGKVDENYPKS | not soluble |
| SLRLTQGLFRFPLAGLLCLSTAAFAESQLSVRVTPANAALKANIEAYVGSLGERDEAALQRFRRNAEAQAEKAAQALGYFQAQIDSEVKDGKPPKLTLKVVPGEPVRLRQVNIQVLGEAASLESFRLPSGKQLKPGAKLNQGVYEDAKRLIQNQASRYGFFQGRFSTQRLSIDPRAGIADIDLVYDSGQRYTFGKVSFDGDSIIEEELLRRMVPFKAGQPYDSELIAELNQNLQSSGYFEGVRVDAAPTQAQADGARQAIPVAVRLEARKPRTMGVGLGFSTDVGARARFNWTRHWVNAEGHSLGFESEISAPRQNVGAWYEIPLDPPLTDKLRFTSGYQFEDLVDTESKLLTLGGEWHSKRPDGWQRVVSLNWMREEYKLGDDSGLSSFLMPGIGYSLLETDNKVDPSHGYRLQFNVKGAKEGLLADADVLHVDAMAKGLTSFAGGHRLLGRLQVGGIATNDYKSIPPSLRFFAGGDQSVRGYDYRTLSPENSDGDKIGGRYMIAGSVEYQYPLAERWRLATFVDQGNAFNSLDFPSIKTGVGFGVRWVSPVGPLRLDLAHALDDDGGFRLHFSMGPEL | soluble |
| MNKLYIDSFVEKKLTAGVQLLDEKDFSNIKEKNQLVQLVTKSNRPIGTAYISKQNKGIGWYLGPEKIDLSISYFVSLFSVAKAKRQDFAQSDETNAYRLFNQEGDGFGGVTIDLYKDFAVFSWYNAFVYDKKEMIMEAFQQVFPEVKGAYEKCRFKGPDTETAHLYGELAQETFSILENGIAYQVFLNEGLMTGIFLDQHDVRRALVDGLAMGKSLLNLFSYTAAFSVAAAMGGAIETTSVDLAKRSRELSLAHFEHNQLNLASHHFVVMDVFEYFKYAKRKKLIFDVIVIDPPSFARNKKQTFSVSRDYHKLITEALDILSPKGTIIASTNAANMTVSQFKKQIIKGFGSRRPESMTLQQLPSDFTINKADERSNYLKVFTIKVRE | not soluble |
| MAHHHHHHMPFNREILAAISFESGPLSSAEIAARRTPTEEPPKNLEVKSCDKRDEPRQNEATINLIRCMKWALGQSITSISHPAKQRPLNPKRDFSIKTKINLDVGVEKPKPGFCCSTAAATGVREQRNHHAPFYDAHGDSEEASHLDESDVESHDEVPNVPLAFVDYSPMCYRHIREFFNIDHRAYRDVLLRSRWHSTPTPGKSAAQLFFCGRDWVIKTMTHEESKFLRRILHRYYFFVLDHPYTLLPHFVGHHRLEINGEKMYIIIMQNVFVTGNTIHEKYDLKGSTVGRFATEAEKKKQTCTQKDLDINRPLHVGATRRNLLIEQMKMDCGFLNQCNIMDYSFLVGIHVLPMYEAHRPAPSTGSREYLGGAAALATSALEPSYLLGMGETMQPMALNGHPTAAADSAPTDGRCFKADQGGMMSADHPGGRREIYYIGIIDILQEYNSRKSMETLVFGMLKDRQKISAVPPKEYAARFVSFVSSIIV | not soluble |
| MAIVDPIVTGLNAGWLHTDASQLQANQQFEADVVIVGTGAGGGVAAEILTQAGLSVIMIEAGPLKSSSDFNMEERVAYPNLYQQAAAMKTADKAIGIFQGRAVGGSTTINWTTSIRTPKEALAFWAQHKSVAGLDPEALAPWFDQMEQRLNIHEWNYEPNRNNGALKQGCINLGWDYTVIKRNVAGCWNTGYCGMGCPVNAKQSMLVTTIPSALEKGAQLISRAKVVKIEHHNGQVFALKAQALDVNLRPTAVELLFKAKHYILSAGAIHTPTLMMRSEVPDPHQLLGKRTFLHPTVLSGGVFADTINAHSGAPQSIYSDEFVWKNGADGELGYKLEVPPVHPILIASKTIGYGVSHAELMAQFNQLQVTIALIRDGYHPDSQGGQVHLTPTGFSLDYPLTDAFWRAVRRAYASMAELQFSAGALKVLPISDGMPYLSSWKEAKESIAQMDLAPLKTVVASAHVMGGCPLGEDEKLSMVNSYGQSHYLNNLSVMDGSIFPTSLGANPQLSIYGITARNATALAQKLKDGREPQLEHHHHHH | not soluble |
| MRPKVSVALATYNGEKYIEEQLESIIKQTRAPDELVICDDCSNDETINIITKKIKNAHFDVKLVSNDKNIGYVQNFSKALEMSSGDIVFLCDQDDVWLSDKIEFIINKFNTRPDIQLLIHDVDYCKEDLTPIGQTKLQRMESNFDIESDYVVGMATAVRRSFLVHCLPVPSAPEVTHDEWLHDCARVLGCKGIVREVLALYRRHSLNVTAPSRLNVDFVTTRHYFGNESLAFLKLFRMETDLGSPDISPLVQWLDSRKMVLLDNGFSSEDRINTFIQYEEKRLRARNSRQSILRLDRWKRLFPIYDLYRSGGYHYYCGWKSALKDLLRTYALEHHHHHH | soluble |
| MKVLAIDTSNYVMGVSLIEEGNVIGEIITNLTKNHSVRLMPAVEQLLKECGVKPKELTKIVVAAGPGSYTGVRIGVTAAKTLAWSLQIPIVGVSSLEVVAANGANFNGLISPLFDGRRGQIYTGLYTYEGEDLTSIEEDRIILIVDWLQMLKDKGKPVLFIGNDVKLHKETIIEHLGDQAVFAPVTKNNPRPSELAFLGLQKEEQDVHSFVPSYLRLAEAETKWLESQNK | not soluble |
| MGSDKIHHHHHHMGKQQIWKNWWENHTCTPEHYYQPEQIDEVVEIIKSANLEQKQIKVIGSGRSWSDIPCTDGYMISLDKFNQVLDIDIEQKTVIVKSGIRIYQLVDILAKHGLALSSLGSICEQSIAGAISTGTHGNSLHQGGLASSILELELVNGIGEVIKCSKSENPDLFSAALIGLGAIGIITQVKIQCCNQFWLTETLQCWNIKDVLENLDTLKKNDYCRFWYTTTNKDAIVQTFSDSQILEKTGFIHFIKRIITQIFWFLWISWHDNPAEHDSQSFTRKDESQHILCYPRFFLKLYKLSFRMTKYCQNVLISEYGIPEEMASIAMNKILSLVDRGIIKGHLRFEVRFGAAEDVWLSTAYQRPTCYIQVLFEKKNFTSTQDQNDAFIQVENIIKNLAGRPHWAKDHLYTNDDLRSTYPRWQEFLQIRQQTDPQQCFTNSYLNKIFDDVRRTA | not soluble |
| MGSDKIHHHHHHMTDPRILSLQQAVPALRLKTEPADLEHYGRDWTRRWTPNPLAIALPGSVEEVQAVVRWANTHAVAVVPSGGRTGLSGGAVAANGELVLSLERLNKPLAFDAVDRTLTVQAGMPLEAVHNAAREHGLVYPVDFAARGSCSIGGNIATNAGGIRVIRYGNTREWVAGLSVVTGTGELLHLNNALVKNSSGYDFRHLMIGSEGTLGIVVEATLRLTDPPPPSNVMLLALPSFDVLMQVFAAFRAQLRLEAFEFFTDRALEHVLAHGAQAPFAEVHPYYVVTEFAAGDEAQEAAAMAAFEACMEQGWVSDGVISQSDAQAAQLWRLREGITEALARYTPYKNDVSVRISAMPAFLAETQALLHDAYPHFDVVWFGHIGDGNLHINVLKPDATSQADFITACEQVTKLLAQSLQRFDGSISAEHGIGLVKKPYLWSTRSAAEIALMRGIKHVLDPHLLLNPGKLFDMDEVPGATPAG | not soluble |
| SKELKEIKSELLNYTDDTLPAMERVDAIRDDLSHWRRSQFATYTYKDADKIRNKIASNIREREKISKELEAYGSTIWPGEEQQTFQRLMRQWKQYLVTMDQYNESMLAGNKTEALAVLSNSLNDFEAVDSDLNELIRLLKVAMDSNKNHILSSVN | not soluble |
| MGSDKIHHHHHHMLTSVFGISIKYEAWNHQDSLPVYIAGSYDFHTAYIGNRRCIMLAPTEELATLPALKKQIVKIQQIDNVPVVFELTTVSNYRRKSLIENNIPFITDKQVFLPFIGTMLSDEKEPQKLTGKFVYSTQQLFLFYLYSKKKRLYTSEAGKVLPFTAMTLTRAVKQLETTDLFLVAKDGVNKFIESKYKRDELFEKAKVYLTTPVRKTGYIDKTQVTENMVFAGETALSEKTMLNPSRVVTYAISEKDYDKSLLTDELIDPDKQVRLELWAYNPKQFSEDNSADDISLVLSFKDTNDERIEEAVDELQERRLHE | not soluble |
| MSLEFKGELTFEQELALSDMTSKENGLLHAETGFGKTVLGAALISERKTKTIILVHNKQLLDQWLDRLNCFLTFEEEEAIRYTASGREKVIGYVGQYGGTKKWLSKLVDVVMIQSLFKLENSQSLLDEYEMMIVDECHHVSALMFEKVVAQFRGKYLYGLTATPERKNGHEPIVFQRIGEILHTADKRETDFKRQLQLRFTSFGHLEIEKTKASNFIQLSDWIATDSVRNQMILKDILAQVAEGRNILVLVNRIQQIDVFEKLLKEKEVDDCYIISGKTKVRERTSLLETLEQLDKGFVLLSTGKYIGEGFDLPQLDTLILAAPFSWKNNLIQYAGRIHRNYKDKSLVRIFDYVDIHVPYLEKMFQKRQVAYRKMDYRVIEGEGHHHHHH | not soluble |

Source: the DeepSol protein solubility set
